From the DeepSol protein solubility set

Assay: soluble on expression in E. coli; label from the status in PepcDB or PDB records

Row | Sequence | soluble on expression in E. coli
1 | SQGENVDHAQPISTWSAEQELHLVVFTKPPIAGLTKQRLSREIGSTLATRISAALVENTLATAYDWLQGLDLQAGGTGAVHLYYTPVESEQAKAECVERWLDDSVRHRYPAFRIAPQKASKVQSTGDQKQDPLGSRLIQAFTEVTSLVDESRDAHVVVIGSDCPALDTAVLQQAFAALHAGHGAVIGPAQDGGYYLLGLAFAAAERTRWARVIYAAFGPHLVFSQNDVCARTVEALRNDGVRTICLPVTLNDVDTAQDLVHLPASMRPREWFSSANARLHKTSDLVETAPAPGSTTCDEEVDADKLDPSVQNVCSRQV | soluble
2 | MANFTAADVKRLRELTGAGMLACKNALAETDGDFDKAVEALRIKGAKDVGKRAERATAEGLVAAKDGALIELNCETDFVAKNAEFQTLADQVVAAAAAAKPADVDALKGASIGDKTVEQAIAELSAKIGEKLELRRVAIFDGTVEAYLHRRSADLPPAVGVLVEYRGDDAAAAHAVALQIAALRARYLSRDDVPEDIVASERRIAEETARAEGKPEQALPKIVEGRLNGFFKDAVLLEQASVSDNKKTVKALLDVAGVTVTRFVRFEVGQA | not soluble
3 | MLPQRLKKAITDNPKKLGNLIDLVNLPSTLRNFVGQSQISRLGCFMRVWSYIKTNNLQDPKNKNVVICDEKLKSILLGKQRVELVDLPSLIKLHFPKEQKKNSQKI | not soluble
4 | VPEKFKLSTALMDVLGIEVETRPRIIAAIWHYVKARKLQNPNDPSFFNCDAALQKVFGEEKLKFTMVSQKISHHLSPPPP | soluble
5 | MEHKIREEMRVLPSIDPQFEIERRVAFIKRKLTEARCKSLVLGISGGVDSTTCGRLAQLAVEELNQQHNTTEYQFIAVRLPYGEQKDEDEAQLALSFIRPTHSVSVNIKAGVDGLHAASHHALANTGLIPSDPAKVDFIKGNVKARARMVAQYEIAGYVGGLVLGTDHSAENITGFYTKFGDGACDLAPLFGLNKRQVRLLAKTLGAPEQLVYKTPTADLEELAPQKADEAALNLTYEQIDDFLEGKAVPAEVSQRLVAIYHATQHKRQPIPTIYD | soluble
6 | MSLTKYHDLKNKVIVIAGGIKNLGALTAKTFALESVNLVLHYHQAKDSDTANKLKDELEDQGAKVALYQSDLSNEEEVAKLFDFAEKEFGKVDIAINTVGKVLKKPIVETSEAEFDAMDTINNKVAYFFIKQAAKHMNPNGHIITIATSLLAAYTGFYSTYAGNKAPVEHYTRAASKELMKQQISVNAIAPGPMDTSFFYGQETKESTAFHKSQAMGNQLTKIEDIAPIIKFLTTDGWWINGQTIFANGGYTTREGHHHHHH | soluble
7 | MSAHDRKEPAQRCPAALAAERLQIGLEHCGISADVHQGYGVSLVSVWTNLVVWTDGLAYRWWTGKISAKTGRRLYRVYAVDNPITVAHCVAQRYEELRKASHHSRGVVERTS | not soluble
8 | MQPDNYFILAQKPITEPSASVMGQVKNDVKKEEPKNEEKKPGDENKNPAAVGAEGAGAAEKPQDKSQKPFPEIKMPTESMKKKKNTDNEIDKRKKMKTGFYQEKSDEDDTLEKIESLKVEQSDKTKKSQKKKLTLENGEKKV | not soluble
9 | VDICNHALLVGFGRVGSLLGEKLMAQGIPLVVVETSRTRVDELRERGISAVLGNAANEEIMELAHLDCARWLLLTIPNGYEAGEIVASAREKCPNIEIIARAHYDDEVDYIIDRGANQVVMGEREIARAMLRLLETPPAG | not soluble
10 | MGSDKIHHHHHHMRTLTISDEIVPAVYSLNIKQRFADVQLVLACGDLPIYYLEFVVTMLGQPCFYVWGNHDAPEVQADGQVVSYARGATCIEDHVVCHQGLLIGGLGGSIRYKPDGHHQYTETQMMLRVLRMAPRLFLNRLRYGRYLDVLLTHAPPLGIHNGPDYPHRGFLALLRFIQWFRPRYLIHGHIHLSYGFGHATETLYGQTLVINTAGYRVLDLAI | not soluble
11 | SKRRRCKGKNMTKNLLVELGLEELPAYVVTPSEKQLGEKMAAFLGENRLSYESIQTFSTPRRLAVRVLGLADQQTDLTEDFKGPSKKIALDADGNFSKAAQGFVRGKGLTVDDIEFREVKGEEYVYVTKHEAGKSAKEVLAGIPEVLASLTFPVSMHWANNSFEYIRPVHTLIVLLGDEALELDFLGIKSGRVSRGHRFLGHEVEITNADSYEEDLRTVYVIANSKERENMIREQIKAIEAEQGVQVQIEEGLLNEVLNLVEYPTTFMGGFDTKYLDVPEDVLVTSMETHQRYFVVRDLDGRLKPNFISVRNGNAEHLENVVRGNEKVLVARLEDGEFFWREDQKLKIEDLVAKLANVTFHEKIGSLSEHMARAGVIAASLAEKAGLTAEEKAAVARAAEIYKFDLLTGMVGEFDELQGIMGEKYALLAGEDEAVATAIREHYLPDSADGALPETKVGAILALADKLDTLLSFFSVGLIPSGSNDPYALRRATQGIVRILDAFGWHIPMDELIDSLYGLSFDSLSYDNQAEVIRFIKARVDKMMGSTPKDIKEAVLSGSNFV | not soluble
12 | ATPAPAAEMPGITIISASQTGNARRVAEALRDDLLAAKLNVKLVNAGDYKFKQIASEKLLIVVTSTQGEGEPPEEAVALHKFLFSKKAPKLENTAFAVFSLGDTSYEFFCQSGKDFDSKLAELGGERLLDRVDADVEYQAAASEWRARVVDALKSRAPVAAPSQSVA | soluble
13 | MGSDKIHHHHHHMQQLFVQLLEERYFNRLPEALVLKFATESADFVRFWLVHCMRSMVSERELAIALFFSAEWELEELASLKSFWGSYVAMEEAQEVKATFCHFVPWLKTISPHHEDAICVFSALWFFEHRPTSVGKQLQSATLSHSQLPVSLLDDIKLFSLPHLRPITVYGHQGKGSVESGIRNNMHYPTPIPNDNLAMACVERVIAKFAGIKLAFAEPIVVLRYEPGQFYQWHYDAIHAYTAEIQAELERFGQRSRTAILYLNDDFEGGETEFKAPYIQVKPETAAILVFDNTDQTGKPIPSSLHRGCEVTAGKKWVCTQWFRDKPFWLRAGLLA | not soluble
14 | MMNTNTTNNTVLLFTFNNIQGRGLQTAIEQNLEKPVLLTQGADVNLPSTRDEHYVAIVDSSLPELPEVKQTLSELEHVDATVLVNAEPNLRIESLLTWSNLKGLFYFEDDFDKVMMGLKGILNGENWLSRDILN | not soluble
15 | MSLSTPAVQALSHLVRDVTMKSIVLSAFGTMPIVDERPLPVAGPQEILIRMTHASLNPIDRRIAEGFFKDRFEHRFPLTLGIDGAGVVESIGEQVSDFEVGDSVFGRFLHSYVGNGSFSEYVAISADATLLHTPLGVPPALAAALPTAATTALQAVESLGLPPGSVVLIMGATGGVGTFAVQLARAKGYQVLASASTEAAPWLAQLGVEHVFDRTQNVPERLSTGWPAGINGLIDLVNPAPAFAELVSCIAPGGTALSSIWSATADVAAARGVRAVNLEMLPNREDLRTLARQVLSGSLRVVIDKHISLEAVPAVMSQRQAGGARGKTVIDIAEGHHHHHH | soluble
16 | MSLNLVSLRVITDDVARLVGFYERATGLRATWATEDFAELRTPSGTLAIGSTRTVPLFAPGSARPADNRSVIVEFLVDDVDAVHRNLTGFVDEFVREPTTMPWGNRALLFRDPDGNLVNFFTPVTEGHHHHHH | not soluble
17 | MGSDKIHHHHHHMKEILKQQYAIIDIGSNTMRLVIYEKQNGGFYKEIENTKVVARLRNYLVDGVLIEEGIEVLLQTLFQFQESTRFHQLRHVLCVATATIRQAENQEEIKKLVEGQTDFTLRVLSEYEEARYGYLAVMNSTSFSEGITVDIGGGSTEVTYFRNREILEYHSFPFGALSLKQQFIKEDIPTEEELDKLQTYLEYQFRTLPWLIDKKLPLIAIGGSARNLVKIHQNLICYPIAGVHLYKMKEEDIKNVKEELEGLSFIELQKLEGLAKDRADTIVPAVEVFHTLVNVIEAPAFVLSRKGLREGVFYEELTKDLGISYYPNVVEESLYLLSHEYEMDMEFVMQLIKHGRLICQQLEETGLISMSVKDWEVFHQAAKVFNIGKYIDEEASRLHTFYLLANKTIDGMMHKERVRLALIASYKSKMLFKQHLSPFEGWFDKNEQKKIRLLGAVLQFSAALNIRQRSLVESISITESKEGLTFKIVCEQSALAEKVQAEKQKKQLERVLKTNINLFFESKH | not soluble
